# In the RNAGym collection of RNA variant scans (doi:10.1073/pnas.2313332121):
# B1: TPR t1 (parent)
# chain: GACCAAUCUGCCCUCAGAGCUCGAGAACAUCUUCGGAUGCAGAGGAGGCAGGCUUCGGUGGCGCGAUAGCGCCAACGUCCUCAACCUCCAAUGCAUCCCACCACAUGAUGAUGCCUGAAGAGCCUUGGUUUUUUG
# Variants of: B1
# Test: polymerase ribozyme fitness, log enrichment relative to wild type (log ratio); higher = more active; in vitro selection for triplet polymerase activity
# Outline: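 One round of in vitro selection, in triplicate, was applied to PCR-built, transcribed mutant libraries of each subunit of a heterodimeric triplet polymerase ribozyme. The steps were annealing with a biotinylated primer, partner subunit and triplets, incubation frozen at −7 °C, gel excision of extended constructs, streptavidin-bead capture and RT-PCR. Fitness is the logarithm, base 2, of genotype enrichment over wild-type enrichment from inverse-variance-weighted replicate averages of Illumina-sequenced inputs and outputs, keeping genotypes with ≥10 input reads and ≥1 read per output.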
row,Variant,polymerase ribozyme fitness (log ratio)
1,GACCAAUCUGCGCUCAGAGCUCGAGUACAUCUUCGGAUGCAGAGUAGGCAGGCUUCGGUGGCGCGAUAGCGCCAACGUCCUCAACCUCCAAUGCAUCCCACCACAAGAUGAUGCCUGAAGAGCCUUUGUUUUUUG [C12G A26U G45U U106A G127U],-4.14
2,GACCAAUCUGCGCUCAGAGCUCGGGAACAUCUUCGGAUGCUGAGGAGGCAGGCUUCCGUGGCGCGAUAGCGCCAACGUCCUCAACCUCCAAUGCAUCCCACCACAUGAUAAUGCCUGAAGAGCCUUGGUUUUUUG [C12G A24G A41U G57C G110A],-5.76
3,GACCAAUCUGCGCUCAGAGCUCGAGAACUUCUUCGGAUGCAGAGGAGGCAGGCUUCGGUGGCGCGAUAGCGCCAACGUCCUCAACCUCCAAUGCAUCCCACCACAUGAUGAUGCCUAAAGAGCCUUGGUUUUUUG [C12G A29U G117A],-2
4,GACCAAUCUGCGCUCAGGGCUCGAGAACAUCUUCGGAUGCAGAGGAGGCAGGCUUCGGUGGCGCGAUAGCGCCUACGGCCUCAACCACCAAUGCAUCCCACCACAUGAUGAUGCCUGAAGAGCCUUGGUUUUUUG [C12G A18G A74U U78G U87A],-4.81
5,GACCAAUCUGCGCUCAGAGCUCGAGCACAUCUUCGGAUGCAGAGGAGGCAGGCUUCGGUUGCGCGAUAGCGCCAACGUCCUCAACCUCCAAUGCAUCCCACCACAUGAUGAUGCCUGAAGUGCAUUGGUUGUUUG [C12G A26C G60U A121U C124A U131G],-3.72
6,GACCAAUCUGCGCUCAGAGCUCGAGAACUUCUUCGGAUGCAGAGGAGGCAGGCUGCGGUGGUGCGAUAGCGCCAACGUCCUCAACCUCCAAUGCAUCCCACUACAUGAUGAUGCCUAAAGAGCCUUGGUUUUUUG [C12G A29U U55G C62U C102U G117A],-4.8
7,GACCAAUCUGCACUCAGAGCUCGAGAACAUCUUCGGAUGCAGAGGAGGCAGGCUUCGGUGGCGCGAUAGCGCCAACGACCUCAACCUCCAAUGCAUCCCACCACAUGAUGAUGCCUGAUGAGCCUUGGUUUUUUG [C12A U78A A119U],-0.914
8,GACCAAUCUGCGCUCAGAGCUCGAGAACAUCUUCGGAUGCAGGGGAGGCAGGCUUCGGUGGCGCGAUAGCGCCAACGUACUCAACCUCCAAUGCAUCCCACCACAUGAUGAAGCCUCAAGAGCCUUGGUUUUUUG [C12G A43G C79A U112A G117C],-4.33
9,GACCAAUCUGCACUCAGAGCUCGAGAACAUCUUCGGAUGCAGAGGAGGCAGGCUUCGGUGGCGCGAUAGCGCCAACGUCCUCAACCUCCAAUGCAACCCACCACAUGAUGAUGCCUGAAGAGCCUUGGUUUUUUG [C12A U96A],-1.84
10,GACCAAUCUGCGCUCAGAGCUCGAGAACAUCUUCGGAUGCAGAGGCGGCAGGCUUCGGUGGCGCGAUAGCGCCAACGUCCUCAACCUCCAAUGCAUCCCACCACAUGAUGAUGCCUGAAGAGCCUUGGUUUUUUG [C12G A46C],-1.55
11,GACCAAUCUGCGCUCAGCGCUCGAGAACAUCUUCGGAUGCAGAGGAGGCAGGCUUUGGUGGCGCGAUAGCGCCAACGUCUUCAACCUCCAAUGCAUCCCACCACAUGAUGAGGCCUGAAGAGCCUUGGUUUUUUG [C12G A18C C56U C80U U112G],-4.94
12,GACCAAUCUGCACUCAGAGCUCGAGAACAUCUUCGGAUGCAGAGGAGGCAGGCUUCGGUGGCGCGAUAGCGCCAACGUCCUCAACCUCCAAUGCAUCCCACCACAUGAUGAAGCCUGAAGAGCCUUGGUUUUUUG [C12A U112A],1.18
13,GACCAAUCUGCACUCAGAGCUCGAGAACAUCUUCGGAUGCAGAGGAGGCAGGCUUCGGUGGCGCGAUAGCGCCAACGUCCUCAACCACCAAUGCAUCCCACCACAUGAUGAUGCCUGAAGAGCCUUGGUUUUUUG [C12A U87A],-0.82
14,GACCAAUCUGCACUCAGAGCUCGAGAACAUCUUCGGAUGCAGAGGAGGCAGGCUGCAGUGGCGCGAUAGCGCCAACGUCCUCAACCUCCAAUGCAUCCCACCACAUGAAGAUGCCUUAAGAGCCUUGGUUUCUGG [C12A U55G G57A U109A G117U U132C U134G],-6.47
15,GACCAAUCUGCGCUCCGAGCUCGAGAACAUCUUCGGAUGCAGAGGAGGCAGGCUUCGGUGGCGUGAUAGCGCCAACGUCCUCAACCUCCAAUGCAUCCCACCACAUGAUGAUGCCUGAAGAGCCUUGGUUUUUUG [C12G A16C C64U],-2.46
16,GACCAAUCUGCGCUCAGAGCUCGAGAACAUCUUCGGAUGCAGAGGGGGCAGGGUUCGGUGGCGCGAUAGCGCCAACGUCCUCAACCUCCAAUGCGUCCCACCACAUGAUGAUGCCUGAGGAGCCUUGGUUUUUUG [C12G A46G C53G A95G A119G],0.414
17,GACCAAUCUGCACUCAGAGCUCGAGAACAUCUUCGGAUGCAGAGGAGGCAGGCUUCGGUGGCGCGAUAGCGCCAACGUCCUCAACCUCCAAGGCAUCCCACCACAUGAUGAUGCCUGAAGAGCCUUGAUUUUUUG [C12A U92G G128A],-5.4
18,GACCAAUCUGCGCUCAGAGCUCGAGAACAUCUUCGGGUGCAGAGGAGGCAGGCUUCGGUGGCGCGAUAGCGCCAACGUCCUCAACCUCCAAUGCAUCCCACCACAUGAUGAUGCCUGAAGAGCCUUGGUUUUUUG [C12G A37G],0.106
19,GACCAAUCUGCGCUCAGCGCUCGAGAACAUCUUCGGAUGCAGAGGAGGCAGGCUUCGGUGGCGCGAUAGCGCCAACGUCCUCAACCUUCAAUGCAUCCCACCACAUGAUGAUGCCUGAAGAGCCUUGGUUUUUUG [C12G A18C C88U],-2.16
20,GACCAAUCUGCACUCAGAGCUCGAGAACAUCUUCGGAUGCAGAGGAGGCAGGCUUCGGUGGCGCGAUAGCGCCAACGUCCUCAACCUCCAAUGCAUCCCACCACAAGAUGAUGCCUGAAGAGCCUUGGUUUUUUG [C12A U106A],-0.467
21,GACCAAUCUGCGCUCAGAGCUCGAGAACAUCUUCGGUUGCAGAGGAGGCAGGCUUCGGUGCCGCGAUAGCGCCAGCGUCCUCAACCUCCAAUGCAUCCCACCACAUGAUGAUGCCUGAAGAGCCUUGGUUUUUUG [C12G A37U G61C A75G],-1.16
